Settings: Kitasatospora aureofaciens, Thermal, CD, whole UniProt chain shown

B1: Guanyl-specific ribonuclease Sa wild type, P05798 (protein)
chain: DVSGTVCLSALPPEATDTLNLIASDGPFPYSQDGVVFQNRESVLPTQSYGYYHEYTVITPGARTRGTRRIITGEATQEDYYTGDHYATFSLIDQTC
- Tm (pH 3, Glycine 30 mM): 39.9 °C
- unfolding enthalpy (van 't Hoff) (pH 3, Glycine 30 mM): 81 kcal/mol
- Tm (pH 7, Mops 30 mM): 47.8 °C
- unfolding enthalpy (van 't Hoff) (pH 7, Mops 30 mM): 91 kcal/mol
- Tm (pH 8.5, Mops 30 mM): 38.7 °C
- unfolding enthalpy (van 't Hoff) (pH 8.5, Mops 30 mM): 84 kcal/mol

Reference: FireProtDB (doi:10.1016/j.jmb.2005.09.091)
